Measurements taken from publication PMC5137453 (Nucleic Acids Research, 2016).

Legend:
SEC = biological target: the molecule itself; assay: SEC
CPS-6 H148A/K131D/F132N = biological target: T1, CPS-6 H148A/K131D/F132N (Caenorhabditis elegans, UniProt Q95NM6 63-305, H148A;K131D;F132N); assay: filter binding
T1 sequence: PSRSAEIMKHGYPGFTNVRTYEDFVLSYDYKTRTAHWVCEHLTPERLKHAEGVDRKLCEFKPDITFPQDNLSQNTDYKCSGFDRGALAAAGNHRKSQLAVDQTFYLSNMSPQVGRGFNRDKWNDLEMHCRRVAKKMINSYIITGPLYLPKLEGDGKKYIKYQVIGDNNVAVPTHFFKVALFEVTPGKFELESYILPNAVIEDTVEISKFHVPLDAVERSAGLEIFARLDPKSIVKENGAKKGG

CPS-6 H148A = biological target: T2, CPS-6 H148A (Caenorhabditis elegans, UniProt Q95NM6 63-305, H148A); assay: filter binding
T2 sequence: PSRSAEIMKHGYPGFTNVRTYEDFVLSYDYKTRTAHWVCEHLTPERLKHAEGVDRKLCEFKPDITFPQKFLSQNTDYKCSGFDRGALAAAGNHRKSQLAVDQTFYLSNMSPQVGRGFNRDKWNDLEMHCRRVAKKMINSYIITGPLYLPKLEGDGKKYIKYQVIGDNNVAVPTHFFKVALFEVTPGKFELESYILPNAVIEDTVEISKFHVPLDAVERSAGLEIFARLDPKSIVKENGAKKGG

CPS-6 H148A/P207E = biological target: T3, CPS-6 H148A/P207E (Caenorhabditis elegans, UniProt Q95NM6 63-305, H148A;P207E); assay: filter binding
T3 sequence: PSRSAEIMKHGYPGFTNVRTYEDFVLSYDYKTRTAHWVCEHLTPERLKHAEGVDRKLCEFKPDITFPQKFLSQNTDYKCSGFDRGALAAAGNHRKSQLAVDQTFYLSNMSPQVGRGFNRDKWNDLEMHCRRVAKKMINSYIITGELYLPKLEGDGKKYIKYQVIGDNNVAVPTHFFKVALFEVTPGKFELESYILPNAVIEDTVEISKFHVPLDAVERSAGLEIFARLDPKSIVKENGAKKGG

CPS-6 H148A/F122A = biological target: T4, CPS-6 H148A/F122A (Caenorhabditis elegans, UniProt Q95NM6 63-305, H148A;F122A); assay: X-ray crystallography
T4 sequence: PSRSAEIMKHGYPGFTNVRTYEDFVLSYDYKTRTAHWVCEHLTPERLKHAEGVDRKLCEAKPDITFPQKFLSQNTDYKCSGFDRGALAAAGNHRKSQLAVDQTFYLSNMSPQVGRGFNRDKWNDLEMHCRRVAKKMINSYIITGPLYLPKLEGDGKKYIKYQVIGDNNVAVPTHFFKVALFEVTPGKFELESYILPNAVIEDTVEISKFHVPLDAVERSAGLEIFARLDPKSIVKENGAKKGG

B1: CPS-6 H148A (enzyme)
chain: PSRSAEIMKHGYPGFTNVRTYEDFVLSYDYKTRTAHWVCEHLTPERLKHAEGVDRKLCEFKPDITFPQKFLSQNTDYKCSGFDRGALAAAGNHRKSQLAVDQTFYLSNMSPQVGRGFNRDKWNDLEMHCRRVAKKMINSYIITGPLYLPKLEGDGKKYIKYQVIGDNNVAVPTHFFKVALFEVTPGKFELESYILPNAVIEDTVEISKFHVPLDAVERSAGLEIFARLDPKSIVKENGAKKGG
In the case of B1, the “stoichiometry N” value (SEC) is reported as 2.

B2: CPS-6 H148A/F122A (enzyme)
chain: PSRSAEIMKHGYPGFTNVRTYEDFVLSYDYKTRTAHWVCEHLTPERLKHAEGVDRKLCEAKPDITFPQKFLSQNTDYKCSGFDRGALAAAGNHRKSQLAVDQTFYLSNMSPQVGRGFNRDKWNDLEMHCRRVAKKMINSYIITGPLYLPKLEGDGKKYIKYQVIGDNNVAVPTHFFKVALFEVTPGKFELESYILPNAVIEDTVEISKFHVPLDAVERSAGLEIFARLDPKSIVKENGAKKGG
With B2 the “stoichiometry N” value (SEC) was 2.

B3: 48-nt ssDNA (ssDNA)
DNA: ACGCTGCCGAATTCTGGCGTTAGGAGATACCGATAAGCTTCGGCTTAA
In the case of B3, the Kd (CPS-6 H148A/K131D/F132N) is reported as 659 nM, the Kd (CPS-6 H148A) is reported as 159 nM and the Kd (CPS-6 H148A/P207E) is reported as 804 nM.

B4: 8-nt ssDNA (5'-TTTTTTGT-3') (ssDNA)
DNA: TTTTTTGT
B4: binds (CPS-6 H148A/F122A).
